First the molecules themselves.
T1: FcγRIIb extracellular domain with C-terminal His tag (human, UniProt P31994 43-217)
T1 construct: extracellular domain; Soluble receptor expressed in FreeStyle293 cells, used as analyte in Biacore; also called FcgRIIb; CD32B; not shown: His tag at the C terminus
T1 sequence (looked up): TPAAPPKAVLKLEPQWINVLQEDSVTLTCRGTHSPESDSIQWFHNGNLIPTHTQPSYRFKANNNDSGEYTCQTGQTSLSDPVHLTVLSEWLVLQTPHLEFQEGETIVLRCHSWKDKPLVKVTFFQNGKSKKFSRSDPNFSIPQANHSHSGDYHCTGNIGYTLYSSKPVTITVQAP

B1: GpH7-A5/GpH7-B3 variant G237_12R/GpL16-k0 (antibody, human IgG1, kappa)
heavy 1: not shown
heavy 2: not shown
light: DIVMTQSPLSLPVTPGEPASISCQASESLVHSNRNTYLHWYLQKPGQSPQLLIYKVSNRFSGVPDRFSGSGSGTDFTLKISRVEAEDVGVYYCSQNTHVPPTFGQGTKVEIERTVAAPSVFIFPPSDEQLKSGTASVVCLLNNFYPREAKVQWKVDNALQSGNSQESVTEQDSKDSTYSLSSTLTLSKADYEKHKVYACEVTHQGLSSPVTKSFNRGEC
notes: Heterodimerized anti-glypican-3 IgG1; substitution in only one H chain; also called G237R; He Ab
B2: GpH7-A5/GpH7-B3 variant P238_11K/GpL16-k0 (antibody, human IgG1, kappa)
heavy 1: not shown
heavy 2: not shown
light: B1 light
notes: Heterodimerized anti-glypican-3 IgG1; substitution in only one H chain; also called P238K; He Ab
B3: GpH7-A5/GpH7-B3 variant S239_16H/GpL16-k0 (antibody, human IgG1, kappa)
heavy 1: not shown
heavy 2: not shown
light: B1 light
notes: Heterodimerized anti-glypican-3 IgG1; substitution in only one H chain; also called S239H; He Ab
B4: GpH7-A5/GpH7-B3 variant P238_07I/GpL16-k0 (antibody, human IgG1, kappa)
heavy 1: not shown
heavy 2: not shown
light: B1 light
notes: Heterodimerized anti-glypican-3 IgG1; substitution in only one H chain; also called P238I; He Ab
B5: GpH7-A5/GpH7-B3 variant S239_11K/GpL16-k0 (antibody, human IgG1, kappa)
heavy 1: not shown
heavy 2: not shown
light: B1 light
notes: Heterodimerized anti-glypican-3 IgG1; substitution in only one H chain; also called S239K; He Ab
B6: GpH7-A5/GpH7-B3 variant P238_01G/GpL16-k0 (antibody, human IgG1, kappa)
heavy 1: not shown
heavy 2: not shown
light: B1 light
notes: Heterodimerized anti-glypican-3 IgG1; substitution in only one H chain; also called P238G; He Ab
B7: GpH7-A5/GpH7-B3 variant S239_04F/GpL16-k0 (antibody, human IgG1, kappa)
heavy 1: not shown
heavy 2: not shown
light: B1 light
notes: Heterodimerized anti-glypican-3 IgG1; substitution in only one H chain; also called S239F; He Ab
B8: GpH7-A5/GpH7-B3 variant S239_12R/GpL16-k0 (antibody, human IgG1, kappa)
heavy 1: not shown
heavy 2: not shown
light: B1 light
notes: Heterodimerized anti-glypican-3 IgG1; substitution in only one H chain; also called S239R; He Ab
B9: GpH7-A5/GpH7-B3 variant P238_02A/GpL16-k0 (antibody, human IgG1, kappa)
heavy 1: not shown
heavy 2: not shown
light: B1 light
notes: Heterodimerized anti-glypican-3 IgG1; substitution in only one H chain; also called P238A; He Ab
B10: GpH7-A5/GpH7-B3 variant G237_16H/GpL16-k0 (antibody, human IgG1, kappa)
heavy 1: not shown
heavy 2: not shown
light: B1 light
notes: Heterodimerized anti-glypican-3 IgG1; substitution in only one H chain; also called G237H; He Ab
B11: GpH7-A5/GpH7-B3 variant S239_15Y/GpL16-k0 (antibody, human IgG1, kappa)
heavy 1: not shown
heavy 2: not shown
light: B1 light
notes: Heterodimerized anti-glypican-3 IgG1; substitution in only one H chain; also called S239Y; He Ab

The target of one experiment is T2, FcγRIa extracellular domain with C-terminal His tag (human, UniProt P12314 16-292).
T2 construct: extracellular domain; Soluble receptor expressed in FreeStyle293 cells, used as analyte in Biacore; also called FcgRI; CD64; not shown: His tag at the C terminus
T2 sequence (P12314 16-292): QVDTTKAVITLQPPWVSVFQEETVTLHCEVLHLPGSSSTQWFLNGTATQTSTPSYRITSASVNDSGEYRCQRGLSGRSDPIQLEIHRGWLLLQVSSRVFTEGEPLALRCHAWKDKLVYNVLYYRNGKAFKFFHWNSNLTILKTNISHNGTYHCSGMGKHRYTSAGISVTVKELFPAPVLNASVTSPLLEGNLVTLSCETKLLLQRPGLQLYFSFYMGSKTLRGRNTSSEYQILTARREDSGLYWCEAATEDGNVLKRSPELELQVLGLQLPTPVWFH
Kind of experiment: SPR (Biacore); ratio of He/Con_1a (FcγRIa) to He/Con_2b (FcγRIIb) of the same antibody.
Regarding B1, the “Ia/IIb He_1a/2b” value came to 6.71.
Same read-out and setting: with B2 the figure was 4.27.
Regarding B3, the “Ia/IIb He_1a/2b” value turned out to be 1.78.
Still for that read-out and setting: with B4 the figure was 1.24; with B5, 2.75.
Same read-out and setting: for B6 the value was 1.66.
Same read-out and setting: for B7 the value was 2.13.
Turning to B8, the “Ia/IIb He_1a/2b” value was found to be 2.21.
Turning to B9, the “Ia/IIb He_1a/2b” value came to 1.66.
The same measure, in the same setting: for B10 the value was 1.32; for B11, 2.57.

The target of another experiment is T2, FcγRIa extracellular domain with …. Description: SPR (Biacore), antibody captured via antigen peptide, FcγR as analyte; binding relative to GpH7-A5/GpH7-B3/GpL16-k0 = 100.
On to B1, for which the He/Con_1a was 65.8 % of control (GpH7-A5/GpH7-B3/GpL16-k0 = 100).
As for B2, the He/Con_1a was 77.4 % of control (GpH7-A5/GpH7-B3/GpL16-k0 = 100).
The same measure, in the same setting: with B3 the figure was 88.1 % of control (GpH7-A5/GpH7-B3/GpL16-k0 = 100).
On to B4, for which the He/Con_1a was 99.1 % of control (GpH7-A5/GpH7-B3/GpL16-k0 = 100).
On the same count and under the same terms, for B5 the value was 68 % of control (GpH7-A5/GpH7-B3/GpL16-k0 = 100).
B6: the He/Con_1a is 92.9 % of control (GpH7-A5/GpH7-B3/GpL16-k0 = 100).
As to B7, the He/Con_1a was 93.8 % of control (GpH7-A5/GpH7-B3/GpL16-k0 = 100).
For B8, the He/Con_1a is 86.5 % of control (GpH7-A5/GpH7-B3/GpL16-k0 = 100).
B9: the He/Con_1a is 95.2 % of control (GpH7-A5/GpH7-B3/GpL16-k0 = 100).
As for B10, the He/Con_1a is 72.6 % of control (GpH7-A5/GpH7-B3/GpL16-k0 = 100).
The same measure, in the same setting: with B11 the figure was 89.8 % of control (GpH7-A5/GpH7-B3/GpL16-k0 = 100).

A further experiment has as its target T1, FcγRIIb extracellular domain with …. The experiment is described as above.
Turning to B2, the He/Con_2b is 18.1 % of control (GpH7-A5/GpH7-B3/GpL16-k0 = 100).
Same read-out and setting: for B3 the value was 49.4 % of control (GpH7-A5/GpH7-B3/GpL16-k0 = 100); for B4, 80 % of control (GpH7-A5/GpH7-B3/GpL16-k0 = 100).
Consider B5, for which the He/Con_2b is 24.7 % of control (GpH7-A5/GpH7-B3/GpL16-k0 = 100).
On the same count and under the same terms, for B6 the value was 56 % of control (GpH7-A5/GpH7-B3/GpL16-k0 = 100); for B7, 44.1 % of control (GpH7-A5/GpH7-B3/GpL16-k0 = 100); for B8, 39.1 % of control (GpH7-A5/GpH7-B3/GpL16-k0 = 100).
The same measure, in the same setting: for B9 the value was 57.4 % of control (GpH7-A5/GpH7-B3/GpL16-k0 = 100).
On the same count and under the same terms, with B10 the figure was 55.2 % of control (GpH7-A5/GpH7-B3/GpL16-k0 = 100); with B11, 34.9 % of control (GpH7-A5/GpH7-B3/GpL16-k0 = 100).

The record behind these values is patent publication US20180155451A1 (published 2018).
